Test system: MS2 coat protein
Experiment: apparent KD of MS2 coat protein; designed switch direction (-1 OFF switch, 1 ON switch): -1; higher = weaker reporter binding
Procedure, shortened: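 An oligonucleotide input, 200 uM small-molecule ligand, or no input was present during titration of SNAP-549-labelled MS2 coat protein, which was doubled from 0.7 or 1.5 nM to 3 µM. Designed RNA switches had been transcribed on Illumina chips by stalled E. coli RNA polymerase. Apparent KD per design is the median over clusters of curves fitted to normalised cluster fluorescence.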

[1] = Eterna round: R95, input ligand: microRNA oligo, concentration not stated
[2] = input ligand: microRNA oligo, concentration not stated
[3] = Eterna round: R95, input ligand: FMN 200 uM
[4] = Eterna round: R95, input ligand: none

CCGGCUGCUGUGAGGAUAUGCCUGUGGGCCCGCGGGCAGAAGGCACAUGAGGAUCACCCAUGUCCUGCGGUCCC [salish99_bmx4_r4_117] (Eterna round: R97, puzzle: Brourd's mod of Exclusion 4)
apparent KD of MS2 coat protein (input ligand: FMN 200 uM): 35 nM | apparent KD of MS2 coat protein (input ligand: none): 33.5 nM

AAGUCGACGGUGAGGAUAUUGGUUGAACGACAGAUCAAGAAGGCACAUGAGGAUCACCCAUGUGGGUAACGUCG [Brourd's EX4 #38] (Eterna round: R97, puzzle: Brourd's mod of Exclusion 4)
apparent KD of MS2 coat protein (input ligand: FMN 200 uM): 34.5 nM | apparent KD of MS2 coat protein (input ligand: none): 19.1 nM

CCAUGUUAGCAGGAUAUGCAAUAAAUCUUUUAAGCAGAAGGGCUUACAUGAGGAUCACCCAUGUAUAAUUUCAA [JR_E6_Sub080] (puzzle: Exclusion 6)
apparent KD of MS2 coat protein [1]: 42.6 nM

CAGCCCUGAGGAUAUCCAUCCUCGUACAUGAGGAUCACCCAUGUCUCCCUCUGGGCUUUCGGAGAAGGCAGGUAUC [Megrez-6.1] (Eterna round: R97, puzzle: Exclusion 5)
apparent KD of MS2 coat protein (input ligand: FMN 200 uM): 743 nM | apparent KD of MS2 coat protein (input ligand: none): 976 nM

CAUGUGUAAGGAUAUGACAAUGGUAUCUUCGGAUACCAUUGUCAGAAGGUACAUGAGGAUCACCCAUGUACAUC [Ex4-3: 17] (puzzle: Exclusion 4)
apparent KD of MS2 coat protein [1]: 13.1 nM

UUCGUGCAGCUUUGCUGUACGCGUACAUGAGGAUCACCCAUGUAGGAUAUGGUACGCUUUGCGUGCUAGAAGGAUAUGUGGAGG [JL EXNG3 1.35] (Eterna round: R96, puzzle: Exclusion NG 3)
apparent KD of MS2 coat protein (input ligand: FMN 200 uM): 59.1 nM | apparent KD of MS2 coat protein [2]: 33.6 nM | apparent KD of MS2 coat protein (input ligand: none): 45.2 nM

CCUCAGUAAGGAUAUCAGCUUAAGGAGGUGGUAAAGAGAGCUGAGAAGGUACAUGAGGAUCACCCAUGUUAAAA [Zatite] (Eterna round: R96, puzzle: Exclusion 4)
apparent KD of MS2 coat protein (input ligand: FMN 200 uM): 193 nM | apparent KD of MS2 coat protein [2]: 47.1 nM | apparent KD of MS2 coat protein (input ligand: none): 57.2 nM

GAUUAUGCAAGCUUUAGGGACAUGAGGAUCACCCAUGUUCGUCUUAUUGAUCUAGGUACGCUGACGUACCUAGAUCU [JL-sv1-2.32 Brourd mod] (puzzle: Sensor v3, turn-off variant 1)
apparent KD of MS2 coat protein [3]: 17 nM | apparent KD of MS2 coat protein [1]: 44.6 nM | apparent KD of MS2 coat protein [4]: 14.8 nM

UAUUAGUGAGGAUAUGGUAAAGAUAAGAUGAUGAAAGAACUCCAGAAGGCACAUGAGGAUCACCCAUGUAGUAG [JL-ex4-2.09 Jieux mod] (puzzle: Exclusion 4)
apparent KD of MS2 coat protein [1]: 19.5 nM

UUUUACGUAGGAUAUACAUUUUUUUUAUUAUUUUCAUUAUUACAUGAGGAUCACCCAUGUAGAAGGACGAUUUU [My Design] (puzzle: Exclusion 2)
apparent KD of MS2 coat protein [1]: 25 nM

GUCAGACGAGGAUAUAAACGAUAUAACAUGAGGAUCACCCAUGUACGAUCGAAUGAUCGUUUAGAAGGCGUCUGAC [E5/10-A4] (Eterna round: R97, puzzle: Exclusion 5)
apparent KD of MS2 coat protein (input ligand: FMN 200 uM): 17.3 nM | apparent KD of MS2 coat protein (input ligand: none): 16.7 nM

CAGCUGAAAGUGAGGAUAUCUAGAGCCUCGGCUCUAGAGAAGGCACAUGAGGAUCACCCAUGUCUCAACAGCUG [BmEx4/1-A2] (Eterna round: R97, puzzle: Brourd's mod of Exclusion 4)
apparent KD of MS2 coat protein (input ligand: FMN 200 uM): 67.1 nM | apparent KD of MS2 coat protein (input ligand: none): 19.6 nM

GAUACACGUUCAGGAUAUCGCGCCCAAUUACACCUCUUCCGACGGACAUGAGGAUCACCCAUGUGCGAGAAGGGAACCAAAACU [Orquonbedi] (Eterna round: R96, puzzle: Exclusion NG 2)
apparent KD of MS2 coat protein (input ligand: FMN 200 uM): 13.6 nM | apparent KD of MS2 coat protein [2]: 13.2 nM | apparent KD of MS2 coat protein (input ligand: none): 17.4 nM

UUUGGUUUGCGAGGAUAUGCUUUUAGUAAGUUAGCAGAAGGCGCGUUACAUAGAACCUCUUGUUACAUGAGGAUCACCCAUGUU [JR_ExcNG1_Sub037] (Eterna round: R96, puzzle: Exclusion NG 1)
apparent KD of MS2 coat protein [2]: 77.3 nM

GCCGUGUCAGGAUAUCGGCGGCUAUAAGUGUACGUACCUUUCGAGAAGGGACAUGAGGAUCACCCAUGUAAAUC [Eternabot (L1) Solution 25] (Eterna round: R97, puzzle: Exclusion 4)
apparent KD of MS2 coat protein (input ligand: FMN 200 uM): 29.9 nM | apparent KD of MS2 coat protein (input ligand: none): 28.9 nM

ACAUGAGGAUCACCCAUGUCAGGCGGGUCCUCUCCGGCUGUUGAGGAUAUAGUUCGGUAUCCGCGCUAGAAGGUGAGGGCCGGC [Aenatbe mod 21] (Eterna round: R96, puzzle: Exclusion NG 3)
apparent KD of MS2 coat protein (input ligand: FMN 200 uM): 15.1 nM | apparent KD of MS2 coat protein [2]: 9.99 nM | apparent KD of MS2 coat protein (input ligand: none): 17.1 nM

AUUGUUUAUGUAGGAUAUGCCUGGCGUGCCUUUGCAGAAGGACAUGAGGAUCACCCAUGUAACAUGAGGCUCACCCAUGUCGCU [salish99_ExNG1_r04_112] (Eterna round: R96, puzzle: Exclusion NG 1)
apparent KD of MS2 coat protein (input ligand: FMN 200 uM): 432 nM | apparent KD of MS2 coat protein [2]: 220 nM | apparent KD of MS2 coat protein (input ligand: none): 311 nM

GGUUUUUUUUUCCUUUCUUACAUGAGGAUCACCCAUGUUUCUUGUCGUGCUCGCGUUGCUCGUCUGUCUGUCUGUUG [salish99_TOv1_r3_075(!)] (puzzle: Sensor v3, turn-off variant 1)
apparent KD of MS2 coat protein [3]: 49.7 nM | apparent KD of MS2 coat protein [1]: 41 nM | apparent KD of MS2 coat protein [4]: 56.2 nM

GGUGCGUAUGUGAGGAUAUGCUGGUCCUUGGGUCAGCAGAAGGCACAUGAGGAUCACCCAUGUGGUGUCGUACC [salish99_Bmod_Ex4_026] (puzzle: Brourd's mod of Exclusion 4)
apparent KD of MS2 coat protein [3]: 20.3 nM | apparent KD of MS2 coat protein [1]: 345 nM | apparent KD of MS2 coat protein [4]: 344 nM

GCAUCCAUAGUGAGGAUAUACCUCUGGAUACAUAGGUAGAAGGCACAUGAGGAUCACCCAUGUUCCUAGGAUGC [Fiskers BMX 4 - 33] (puzzle: Brourd's mod of Exclusion 4)
apparent KD of MS2 coat protein [1]: 16.9 nM

GUUGUUUAUGUAGGAUAUGCCUGGCGUGCCUUUGCAGAAGGACAUGAGGAUCACCCAUGUAUUGCGGUCUGCGUUCAGAUCGCU [salish99_ExNG1_r4_022] (Eterna round: R96, puzzle: Exclusion NG 1)
apparent KD of MS2 coat protein (input ligand: FMN 200 uM): 45.6 nM | apparent KD of MS2 coat protein [2]: 26.2 nM | apparent KD of MS2 coat protein (input ligand: none): 34.8 nM

GGUCAAGAACAGCUCCGCGCUGUCCUUGACCGCUCAUUUACAUGAGGAUCACCCAUGUUUUUUGCUUGUCUUGUUUC [Estetexequ] (puzzle: Sensor v3, turn-off variant 2)
apparent KD of MS2 coat protein [3]: 21 nM | apparent KD of MS2 coat protein [1]: 98.7 nM | apparent KD of MS2 coat protein [4]: 23.8 nM

GCAGCAACUCUAAUCAACCAAACAUGAGGAUCACCCAUGUCUCAGGAUAUGGUCUGGAUUACAGGCCAGAAGGGAGAAAGCUGC [Eli exng3 - 044] (Eterna round: R96, puzzle: Exclusion NG 3)
apparent KD of MS2 coat protein (input ligand: FMN 200 uM): 9 nM | apparent KD of MS2 coat protein [2]: 9.77 nM | apparent KD of MS2 coat protein (input ligand: none): 13.4 nM

AAUUUACAUGAGGAUCACCCAUGUGAGGAUAUAUAUAUAUAUUUGUUAUUGUAUGUUUGUAGAAGGCGCGUGAU [JR_Exc1_Sub033] (Eterna round: R97, puzzle: Exclusion 1)
apparent KD of MS2 coat protein (input ligand: FMN 200 uM): 33 nM | apparent KD of MS2 coat protein (input ligand: none): 39.2 nM

GCUAGGAGUGUGAGGAUAUGCAGUUCCUUGGAACUGCAGAAGGCACAUGAGGAUCACCCAUGUGAAGACCUAGC [Mat - Exclusion 4 - JL Mod - D4] (Eterna round: R97, puzzle: Brourd's mod of Exclusion 4)
apparent KD of MS2 coat protein (input ligand: FMN 200 uM): 212 nM | apparent KD of MS2 coat protein (input ligand: none): 26.6 nM

CAGUACUGAGGAUAUACAUGAGGAUCACCCAUGUGUGUGCGUUUUGUAUGAAUGUUAUGUAGAAGGCGGUGCUG [JR_Ex3_Sub035] (Eterna round: R97, puzzle: Exclusion 3)
apparent KD of MS2 coat protein (input ligand: FMN 200 uM): 201 nM | apparent KD of MS2 coat protein (input ligand: none): 39.1 nM

GUGUUGCGAGGAUAUAUAAGGGUAUGUUCUUGAGGUAUGGAACAUGAGGAUCACCCAUGUAGAAGGUGCAUAAC [JR_Ex2_Sub045] (Eterna round: R97, puzzle: Exclusion 2)
apparent KD of MS2 coat protein (input ligand: FMN 200 uM): 507 nM | apparent KD of MS2 coat protein (input ligand: none): 247 nM

GGUGGACAUGAGGAUCACCCAUGUGAGGAUAUCGGCUGGUACGUGUUGGCUGGCUUCUCGAGAAGGCACAUAGU [Exclusion 1 V65] (puzzle: Exclusion 1)
apparent KD of MS2 coat protein [1]: 45.9 nM

CCUCAUAGUCAGGAUAUCAGCGCGUUCGGCAAAUGAGAAGGGACCACAUGAGGAUCACCCAUGUAAAACCAAAA [Beencema] (Eterna round: R97, puzzle: Exclusion 6)
apparent KD of MS2 coat protein (input ligand: FMN 200 uM): 44.1 nM | apparent KD of MS2 coat protein (input ligand: none): 36 nM

AACUCUGAGAAGGAUAUUCAAUGGGAAACGAUAGAAGAAGGUUUCACAUGAGGAUCACCCAUGUCAAAUAGUGA [EX6 #72] (Eterna round: R97, puzzle: Exclusion 6)
apparent KD of MS2 coat protein (input ligand: FMN 200 uM): 178 nM | apparent KD of MS2 coat protein (input ligand: none): 173 nM

CUUUCGUGAGGAUAUGAAGCUUCGAUCGUGAGAUCGAGGCUACAGAAGGCACAUGAGGAUCACCCAUGUUCCUC [salish99_ex4_r4_217] (Eterna round: R97, puzzle: Exclusion 4)
apparent KD of MS2 coat protein (input ligand: FMN 200 uM): 666 nM | apparent KD of MS2 coat protein (input ligand: none): 31.9 nM

CUAGUCCGAGGAUAUAUUAAGUGAAACAUGAGGAUCACCCAUGUUAUUUAAUGGAAAUAAAUAGAAGGCGGACUAG [Mat - Exclusion 5 - JL mod - D56] (puzzle: Exclusion 5)
apparent KD of MS2 coat protein [3]: 27.2 nM | apparent KD of MS2 coat protein [1]: 34.6 nM | apparent KD of MS2 coat protein [4]: 51.6 nM

CCUCCGGUAUAGGAUAUUUAUGAGCUCAGUUCUAAAGAAGGGUAUACAUGAGGAUCACCCAUGUGUGAAGUUAU [Eternabot (L2) Solution 20] (Eterna round: R97, puzzle: Exclusion 6)
apparent KD of MS2 coat protein (input ligand: FMN 200 uM): 52.5 nM | apparent KD of MS2 coat protein (input ligand: none): 49.9 nM

CAUAUACAUGAGGAUCACCCAUGUGAGGAUAUGCUUUAUUAUUAUUAUUAUUAUUAUUGCAGAAGGUACAUUAC [LRO-Excl01-12] (Eterna round: R97, puzzle: Exclusion 1)
apparent KD of MS2 coat protein (input ligand: FMN 200 uM): 23.9 nM | apparent KD of MS2 coat protein (input ligand: none): 24.6 nM

UUAAAUCAUGUAGGAUAUGCGUGGCGAAGCUAUGCAGAAGGACAUGAGGAUCACCCAUGUUCUGCGGUCUGCGUACAGAUCGCU [JL ENG1 1.04] (Eterna round: R96, puzzle: Exclusion NG 1)
apparent KD of MS2 coat protein [2]: 14.9 nM
